Experiments:
[1] = biological target: T1, HLA-DQ2.5 on HLA-DQ2.5-positive PBMC B cells (human, UniProt P01909 24-254; P01920 33-261); assay: FACS, PBMC B cells; IC17=0%, DQN0139bb//IC17=100%
T1 construct: whole, on cells; also called HLA-DQ2.5+ PBMC B cell
T1 MHC II alpha: not shown
T1 MHC II beta: not shown

[2] = biological target: DQ2.5/omega 2 gliadin peptide on IHW9023 cells (human); assay: cell-based or functional assay
[3] = biological target: DQ2.5/gamma 1 gliadin peptide on IHW9023 cells (human); assay: cell-based or functional assay
[4] = biological target: DQ2.5/alpha 2 gliadin peptide on IHW9023 cells (human); assay: cell-based or functional assay
[5] = biological target: DQ2.5/alpha 1 gliadin peptide on IHW9023 cells (human); assay: cell-based or functional assay
[6] = biological target: DQ2.5/BC hordein peptide on IHW9023 cells (human); assay: cell-based or functional assay
[7] = biological target: DQ2.5/omega 1 gliadin peptide on IHW9023 cells (human); assay: cell-based or functional assay
[8] = biological target: DQ2.5/alpha 1b gliadin peptide on IHW9023 cells (human); assay: cell-based or functional assay
[9] = biological target: T2, HLA-DQ2.5/alpha 2 gliadin peptide complex on Ba/F3 cells (human); assay: FACS, Ba/F3 cells; IC17=0%, DQN0139bb//IC17=100%;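 also: flow cytometry binding of anti-HLA-DQ antibodies at 5 µg/mL, incubated 30 min at room temperature with Ba/F3 lines presenting HLA-DQ/peptide complexes; antibody tested at 5 microgram/mL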
T2 construct: whole, on cells; also called Ba/F3-HLA-DQ2.5/alpha 2 gliadin; HLA-DQ2.5/a2 gliadin
Excerpt: (§1) The binding of anti-HLA-DQ antibodies to Ba/F3-HLA-DQ2.5, Ba/F3-HLA-DQ2.2, Ba/F3-HLA-DQ7.5, Ba/F3-HLA-DQ8, Ba/F3-HLA-DQ5.1, Ba/F3-HLA-DQ6.3, Ba/F3-HLA-DQ7.3, Ba/F3-HLA-DR, Ba/F3-HLA-DP, Ba/F3-HLA-DQ2.5/CLIP, Ba/F3-HLA-DQ2.5/HBV, Ba/F3-HLA-DQ2.5/Salmonella, Ba/F3-HLA-DQ2.5/TPO, Ba/F3-HLA-DQ2.5/M. bovis, Ba/F3-HLA-DQ2.5/alpha 1 gliadin, Ba/F3-HLA-DQ2.5/alpha 2 gliadin, Ba/F3-HLA-DQ2.5/gamma 1 gliadin, Ba/F3-HLA-DQ2.5/gamma 2 gliadin, Ba/F3-HLA-DQ2.5/omega 1 gliadin, Ba/F3-HLA-DQ2.5/omega 2 gliadin, Ba/F3-HLA-DQ2.5/BC hordein, Ba/F3-HLA-DQ2.5/alpha 3 gliadin, Ba/F3-HLA-DQ2.5/alpha 1b gliadin, Ba/F3-HLA-DQ2.5/gamma 4b gliadin, Ba/F3-HLA-DQ2.5/avenin 1, Ba/F3-HLA-DQ2.5/avenin 2, Ba/F3-HLA-DQ2.5/avenin 3, Ba/F3-HLA-DQ2.5/hordein 1, Ba/F3-HLA-DQ2.5/hordein 2, Ba/F3-HLA-DQ2.5/secalin 1, Ba/F3-HLA-DQ2.5/secalin 2, Ba/F3-HLA-DQ2.5/14mer 1, Ba/F3-HLA-DQ2.5/33mer gliadin, Ba/F3-HLA-DQ2.5/26mer gliadin, was tested. 5 microgram/mL of each of the anti-HLA-DQ antibodies was incubated with each cell line for 30 minutes at room temperature and washed with FACS buffer (2% FBS, 2 mM EDTA in PBS).

[10] = biological target: T3, HLA-DQ2.5/avenin 3 peptide complex on Ba/F3 cells (human); assay: FACS, Ba/F3 cells; IC17=0%, DQN0139bb//IC17=100%;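 also: flow cytometry binding of anti-HLA-DQ antibodies at 5 µg/mL, incubated 30 min at room temperature with Ba/F3 lines presenting HLA-DQ/peptide complexes; antibody tested at 5 microgram/mL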
T3 construct: whole, on cells; also called Ba/F3-HLA-DQ2.5/avenin 3
Excerpt: as §1

[11] = biological target: T4, HLA-DQ2.5/gamma 1 gliadin peptide complex on Ba/F3 cells (human); assay: FACS, Ba/F3 cells; IC17=0%, DQN0139bb//IC17=100%;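 also: flow cytometry binding of anti-HLA-DQ antibodies at 5 µg/mL, incubated 30 min at room temperature with Ba/F3 lines presenting HLA-DQ/peptide complexes; antibody tested at 5 microgram/mL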
T4 construct: whole, on cells; also called Ba/F3-HLA-DQ2.5/gamma 1 gliadin; HLA-DQ2.5/g1 gliadin
Excerpt: as §1

[12] = biological target: T5, HLA-DQ2.5/hordein 2 peptide complex on Ba/F3 cells (human); assay: FACS, Ba/F3 cells; IC17=0%, DQN0139bb//IC17=100%;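 also: flow cytometry binding of anti-HLA-DQ antibodies at 5 µg/mL, incubated 30 min at room temperature with Ba/F3 lines presenting HLA-DQ/peptide complexes; antibody tested at 5 microgram/mL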
T5 construct: whole, on cells; also called Ba/F3-HLA-DQ2.5/hordein 2
Excerpt: as §1

[13] = biological target: T6, HLA-DQ2.5/avenin 2 peptide complex on Ba/F3 cells (human); assay: FACS, Ba/F3 cells; IC17=0%, DQN0139bb//IC17=100%
T6 construct: whole, on cells; also called Ba/F3-HLA-DQ2.5/avenin 2
Excerpt: as §1

[14] = biological target: T7, HLA-DQ2.5/gamma 2 gliadin peptide complex on Ba/F3 cells (human); assay: FACS, Ba/F3 cells; IC17=0%, DQN0139bb//IC17=100%
T7 construct: whole, on cells; also called Ba/F3-HLA-DQ2.5/gamma 2 gliadin; HLA-DQ2.5/g2 gliadin
Excerpt: as §1

[15] = biological target: T8, HLA-DQ2.5/gamma 4b gliadin peptide complex on Ba/F3 cells (human); assay: FACS, Ba/F3 cells; IC17=0%, DQN0139bb//IC17=100%
T8 construct: whole, on cells; also called Ba/F3-HLA-DQ2.5/gamma 4b gliadin; HLA-DQ2.5/g4b gliadin
Excerpt: as §1

[16] = biological target: T9, HLA-DQ2.5/omega 2 gliadin peptide complex on Ba/F3 cells (human); assay: FACS, Ba/F3 cells; IC17=0%, DQN0139bb//IC17=100%
T9 construct: whole, on cells; also called Ba/F3-HLA-DQ2.5/omega 2 gliadin; HLA-DQ2.5/w2 gliadin
Excerpt: as §1

[17] = biological target: T10, HLA-DQ2.5/alpha 1 gliadin peptide complex on Ba/F3 cells (human); assay: FACS, Ba/F3 cells; IC17=0%, DQN0139bb//IC17=100%
T10 construct: whole, on cells; also called Ba/F3-HLA-DQ2.5/alpha 1 gliadin; HLA-DQ2.5/a1 gliadin
Excerpt: as §1

[18] = biological target: T11, HLA-DQ2.5/alpha 3 gliadin peptide complex on Ba/F3 cells (human); assay: FACS, Ba/F3 cells; IC17=0%, DQN0139bb//IC17=100%
T11 construct: whole, on cells; also called Ba/F3-HLA-DQ2.5/alpha 3 gliadin; HLA-DQ2.5/a3 gliadin
Excerpt: as §1

[19] = biological target: T12, HLA-DQ2.5/avenin 1 peptide complex on Ba/F3 cells (human); assay: FACS, Ba/F3 cells; IC17=0%, DQN0139bb//IC17=100%
T12 construct: whole, on cells; also called Ba/F3-HLA-DQ2.5/avenin 1
Excerpt: as §1

[20] = biological target: T13, HLA-DQ2.2 on Ba/F3 cells (human, UniProt P01909 24-216, limits assumed); assay: FACS, Ba/F3 cells; IC17=0%, DQN0139bb//IC17=100%
T13 construct: whole, on cells; also called Ba/F3-HLA-DQ2.2
Excerpt: as §1
T13 MHC II alpha: not shown
T13 MHC II beta: not shown

[21] = biological target: T14, HLA-DQ2.5/alpha 1b gliadin peptide complex on Ba/F3 cells (human); assay: FACS, Ba/F3 cells; IC17=0%, DQN0139bb//IC17=100%
T14 construct: whole, on cells; also called Ba/F3-HLA-DQ2.5/alpha 1b gliadin; HLA-DQ2.5/a1b gliadin
Excerpt: as §1

[22] = biological target: T15, HLA-DQ2.5/26mer gliadin peptide complex on Ba/F3 cells (human); assay: FACS, Ba/F3 cells; IC17=0%, DQN0139bb//IC17=100%
T15 construct: whole, on cells; also called Ba/F3-HLA-DQ2.5/26mer gliadin
Excerpt: as §1

[23] = biological target: T16, HLA-DQ2.5/hordein 1 peptide complex on Ba/F3 cells (human); assay: FACS, Ba/F3 cells; IC17=0%, DQN0139bb//IC17=100%
T16 construct: whole, on cells; also called Ba/F3-HLA-DQ2.5/hordein 1
Excerpt: as §1

[24] = biological target: T17, HLA-DQ2.5/secalin 2 peptide complex on Ba/F3 cells (human); assay: FACS, Ba/F3 cells; IC17=0%, DQN0139bb//IC17=100%
T17 construct: whole, on cells; also called Ba/F3-HLA-DQ2.5/secalin 2
Excerpt: as §1

[25] = biological target: T18, HLA-DQ2.5/omega 1 gliadin peptide complex on Ba/F3 cells (human); assay: FACS, Ba/F3 cells; IC17=0%, DQN0139bb//IC17=100%
T18 construct: whole, on cells; also called Ba/F3-HLA-DQ2.5/omega 1 gliadin; HLA-DQ2.5/w1 gliadin
Excerpt: as §1

[26] = biological target: T19, HLA-DQ2.5/secalin 1 peptide complex on Ba/F3 cells (human); assay: FACS, Ba/F3 cells; IC17=0%, DQN0139bb//IC17=100%
T19 construct: whole, on cells; also called Ba/F3-HLA-DQ2.5/secalin 1
Excerpt: as §1

[27] = biological target: T20, HLA-DQ2.5/BC hordein peptide complex on Ba/F3 cells (human); assay: FACS, Ba/F3 cells; IC17=0%, DQN0139bb//IC17=100%
T20 construct: whole, on cells; also called Ba/F3-HLA-DQ2.5/BC hordein
Excerpt: as §1

[28] = biological target: T21, HLA-DQ2.5/14mer 1 peptide complex on Ba/F3 cells (human); assay: FACS, Ba/F3 cells; IC17=0%, DQN0139bb//IC17=100%
T21 construct: whole, on cells; also called Ba/F3-HLA-DQ2.5/14mer 1
Excerpt: as §1

Chain of DQ2.5/alpha 1b gliadin peptide on IHW9023 cells (human) (peptide, as listed by the source): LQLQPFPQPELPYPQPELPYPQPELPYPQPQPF

B1: DQN0344xx//DQN0429cc (bispecific antibody, human IgG1, kappa)
heavy 1: QSLEESGGGLVKPGGTLTLTCTASGFSFSSSYWMCWVRQAPGKGLEWVACVYGGSDTTYYASWTKGRFTISKGSSTTVALQVTSLTAADTATYFCARDPLNYYYYGELNLWGPGTLVTVSSASTKGPSVFPLAPSSKSTSGGTAALGCLVKDYFPEPVTVSWNSGALTSGVHTFPAVLQSSGLYSLSSVVTVPSSSLGTQTYICNVNHKPSNTKVDKRVEPKSCDKTHTCPPCPAPELRRGPSVFLFPPKPKDTLMISRTPEVTCVVVDVSHEDPEVKFNWYVDGVEVHNAKTKPREEQYNSTYRVVSVLTVLHQDWLNGKEYKCKVSNKALPAPIEKTISKAKGQPREPQVYTLPPSREEMTKNQVSLTCLVKGFYPSDIAVEWESNGQPENNYKTTPPYLDSDGSFFLYSKLTVDKSRWQQGNVFSCSVMHEALHNHYTQESLSLSP
light 1: AVVLTQTASPVSAAVGGTVTIRCQATENIYSGLAWYQQKPGQPPKVLIYYVSTLASGVPSRFKGSGSGTEYTLTISGVQCDDAATYYCQTYHDISNVTFGGGTKVEIKRTVAAPSVFIFPPSDEQLKSGTASVVCLLNNFYPREAKVQWKVDNALQSGNSQESVTEQDSKDCTYSLSSTLTLSKADYEKHKVYACEVTHQGLSSPVTKSFNRGEC
heavy 2: QEQLVESGGGLVQPEGSLTLTCTASGFSFSSSYYMCWVRQAPGKGLEWIGCIYTGSGSTDYATWVNGRFTISKTSSTTVTLQMTSLTVADTATYFCARDIGIDYNFWGPGTLVTVSSASTKGPSVFPLAPSSKSTSGGTAALGCLVKDYFPEPVTVSWNSGALTSGVHTFPAVLQSSGLYSLSSVVTVPSSSLGTQTYICNVNHKPSNTKVDKRVEPKSCDKTHTCPPCPAPELRRGPSVFLFPPKPKDTLMISRTPEVTCVVVDVSHEDPEVKFNWYVDGVEVHNAKTKPREEQYNSTYRVVSVLTVLHQDWLNGKEYKCKVSNKALPAPIEKTISKAKGQPREPQVYTLPPSRKEMTKNQVSLTCLVKGFYPSDIAVEWESNGQPENNYKTTPPYLDSDGSFFLYSKLTVDKSRWQQGNVFSCSVMHEALHNHYTQKSLSLSP
light 2: AFELTQTPSFVEARVGGTVTIKCQATQSISSYLNWYQQKPGQPPKLLIYYASTLASGVPSRFKGSGSGTEFTLTISGVECADAATYYCHYGISYVSFGGGTKVEIKRTVAAPSVFIFPPSDEQLKSGTASVVCLLNNFYPREAKVQWKVDNALQSGNSQESVTEQDSKDCTYSLSSTLTLSKADYEKHKVYACEVTHQGLSSPVTKSFNRGEC
- % MFI [1]: 0.4%
- IC50, Jurkat NFAT-Luc T cell activation [2]: 14.6 ng/mL
- IC50, Jurkat NFAT-Luc T cell activation [3]: 94.7 ng/mL
- IC50, Jurkat NFAT-Luc T cell activation [4]: 1.96 ng/mL
- IC50, Jurkat NFAT-Luc T cell activation [5]: 49.8 ng/mL
- IC50, Jurkat NFAT-Luc T cell activation [6]: 415 ng/mL
- IC50, Jurkat NFAT-Luc T cell activation [7]: 39.7 ng/mL
- IC50, Jurkat NFAT-Luc T cell activation [8]: 171 ng/mL
- % MFI [9]: 58.7%
- % MFI [10]: 19.6%
- % MFI [11]: 16.9%
- % MFI [12]: 90%
- % MFI [13]: 18.3%
- % MFI [14]: 1.3%
- % MFI [15]: 6.2%
- % MFI [16]: 19.3%
- % MFI [17]: 63.1%
- % MFI [18]: 18%
- % MFI [19]: 14.2%
- % MFI [20]: 0.8%
- % MFI [21]: 64.6%
- % MFI [22]: 30.7%
- % MFI [23]: 20.3%
- % MFI [24]: 43.3%
- % MFI [25]: 43%
- % MFI [26]: 37.8%
- % MFI [27]: 18.5%
- % MFI [28]: 19.4%

Reference: patent US20220153847A1 (Chugai, published 2022)
